Measurements from patent US11535650 (RA PHARMACEUTICALS, dated 2022).
Positions of bridges follow the written chain, without caps; N, C: chain ends. Non-standard residues stand in square brackets, D forms with d. Primed or numbered codes have the meaning given here. *: point of attachment. mXylyl(3) = bridging moiety between the two residues given in brackets; mXylyl″ = bridging moiety between the two marked residues; mXylyl = bridging moiety between residues (mXylyl(i,j)); Ala(1H-tetrazol-5-yl) = N[C@@H](Cc1nnn[nH]1)C(=O)O; Trp(7-aza) = N[C@@H](Cc1c[nH]c2ncccc12)C(=O)O; mXylyl(4) = bridging moiety between residues; Trp(1-Me) = Cn1cc(C[C@H](N)C(=O)O)c2ccccc21; pXylyl = bridging moiety between residues; Phe(3-Cl) = N[C@@H](Cc1cccc(Cl)c1)C(=O)O; Tiq1c(1S) = O=C(O)[C@H]1NCCc2ccccc21; dPhg = N[C@@H](C(=O)O)c1ccccc1; Phg = N[C@H](C(=O)O)c1ccccc1; Tle = CC(C)(C)[C@H](N)C(=O)O; NMeS = CN[C@@H](CO)C(=O)O; hCys = N[C@@H](CCS)C(=O)O; Heptanoyl = CCCCCCC(=O)*; Nle = CCCC[C@H](N)C(=O)O; Nva = CCC[C@H](N)C(=O)O; Sar = CNCC(=O)O

Molecular target: human C5 protein (human, UniProt P01031 19-673; P01031 678-1676)
Experiment: cell-based or functional assay

Ac-[Nva]CYNN[Tle]E[Trp(7-aza)]ECP[Phg][Tle]-NH2 (linker 2-10 via mXylyl(4)) [R3127]
Avg. IC50, human hemolysis assay (complete human sera): > 75 µM

Ac-CVERFCDVYWEYP-NH2 (linker 1-6 via mXylyl″) [R3140]
Avg. IC50, human hemolysis assay (complete human sera): 0.0179 µM

Ac-[Nva]C[Phg]TW[Ala(1H-tetrazol-5-yl)]Y[NMeS]HC[Nva]-NH2 (linker 2-10 via mXylyl(3)) [R3131]
Avg. IC50, human hemolysis assay (complete human sera): > 100 µM

Ac-[Nva]C[Phg]T[Trp(7-aza)]E[Phe(3-Cl)][NMeS]AC[Nva]-NH2 (linker 2-10 via mXylyl″) [R3134]
Avg. IC50, human hemolysis assay (complete human sera): > 5 µM

Ac-[Nva][hCys][Phg]T[Trp(7-aza)]EY[NMeS]H[hCys][Nva]-NH2 (linker 2-10 via mXylyl(4)) [R3107]
Avg. IC50, human hemolysis assay (complete human sera): > 75 µM

Ac-CVERFCDVYWEFP-NH2 (linker 1-6 via mXylyl″) [R3141]
Avg. IC50, human hemolysis assay (complete human sera): 0.0245 µM

Ac-[Nva][hCys][Phg]T[Trp(7-aza)]EY[NMeS]HC[Nva]-NH2 (linker 2-10 via mXylyl(4)) [R3103]
Avg. IC50, human hemolysis assay (complete human sera): > 25 µM

Ac-C[Tle]ERFCD[Tle]YWEF-NH2 (linker 1-6 via mXylyl″) [R3139]
Avg. IC50, human hemolysis assay (complete human sera): 0.0972 µM

Ac-[Nva]CYNN[Tle]ECEYP[Phg][Tle]-NH2 (cysteine pairing not given here) [R3128]
Avg. IC50, human hemolysis assay (complete human sera): > 100 µM

Ac-[Nva]C[Phg]T[Trp(7-aza)]EYPHC[Nva]-NH2 (linker 2-10 via mXylyl(4)) [R3102]
Avg. IC50, human hemolysis assay (complete human sera): 0.978 µM

Ac-[Nva]C[Phg]T[Trp(7-aza)]EY[NMeS]HGC[Nva]-NH2 (linker 2-11 via mXylyl(4) (inferred)) [R3101]
Avg. IC50, human hemolysis assay (complete human sera): > 100 µM

Ac-[Nva]C[Phg]T[Trp(7-aza)]EY[NMeS][dA]C[Nva]-NH2 (linker 2-10 via mXylyl″) [R3135]
Avg. IC50, human hemolysis assay (complete human sera): > 25 µM

Ac-[Nva][hCys][Phg]T[Trp(7-aza)]EY[NMeS]H[hCys][Nva]-NH2 (linker 2-10 via pXylyl) [R3108]
Avg. IC50, human hemolysis assay (complete human sera): > 75 µM

Ac-[Nva]CYE[Sar][Tle]Y[Trp(7-aza)]EC[Nva]P[Nva]-NH2 (linker 2-10 via mXylyl) [R3009]
Avg. IC50, human hemolysis assay (complete human sera): > 100 µM

B1: R3136 (peptide)
peptide: Heptanoyl-[Nva]C[dPhg]T[Trp(7-aza)]EY[NMeS]AC[Nva]-NH2
modifications: linker 2-10 via mXylyl″; not fully specified; printed as [mXylyl(2,10)]heptanoyl-Nvl-C-(D-Phg)-T-azaTrp-E-Y-(N-Me)S-A-C-Nvl-NH2
Avg. IC50, human hemolysis assay (complete human sera): > 50 µM

Ac-[Nva]CYNN[Tle]ECEYP[Phg][Tle]-NH2 (linker 2-8 via mXylyl(4)) [R3129]
Avg. IC50, human hemolysis assay (complete human sera): > 100 µM

Ac-[Nva]C[Phg][dA][Trp(7-aza)]EY[NMeS]HC[Nva]-NH2 (linker 2-10 via mXylyl″) [R3133]
Avg. IC50, human hemolysis assay (complete human sera): > 75 µM

Ac-[Nva]C[Phg]T[Trp(7-aza)]EY[NMeS]H[hCys][Nva]-NH2 (linker 2-10 via mXylyl(4)) [R3105]
Avg. IC50, human hemolysis assay (complete human sera): > 5 µM

Ac-CVERFCWEF-NH2 (linker 1-6 via mXylyl(4)) [R3125]
Avg. IC50, human hemolysis assay (complete human sera): > 100 µM

B2: R3000 (peptide)
peptide: Ac-[Nva]CYKNYH[Trp(7-aza)]EYP[Tle]Y-NH2
SMILES: CCC[C@H](NC(C)=O)C(=O)N[C@@H](CS)C(=O)N[C@@H](Cc1ccc(O)cc1)C(=O)N[C@@H](CCCCN)C(=O)N[C@@H](CC(N)=O)C(=O)N[C@@H](Cc1ccc(O)cc1)C(=O)N[C@@H](Cc1c[nH]cn1)C(=O)N[C@@H](Cc1c[nH]c2ncccc12)C(=O)N[C@@H](CCC(=O)O)C(=O)N[C@@H](Cc1ccc(O)cc1)C(=O)N1CCC[C@H]1C(=O)N[C@H](C(=O)N[C@@H](Cc1ccc(O)cc1)C(N)=O)C(C)(C)C
Avg. IC50, human hemolysis assay (complete human sera): > 10 µM

Ac-[Nva][hCys][Phg]T[Trp(7-aza)]EY[NMeS]HC[Nva]-NH2 (linker 2-10 via pXylyl) [R3104]
Avg. IC50, human hemolysis assay (complete human sera): > 2 µM

Ac-Y[Nva]C[Phg]T[Trp(7-aza)]EY[NMeS]HC[Nva]-NH2 (linker 3-11 via mXylyl(4)) [R3113]
Avg. IC50, human hemolysis assay (complete human sera): > 5 µM

Ac-[Nva]C[Phg]T[Trp(7-aza)]EY[NMeS]HC[Nva]-NH2 (linker 2-10 via mXylyl) [R3012]
Avg. IC50, human hemolysis assay (complete human sera): 0.148 µM

Ac-[Nva]C[Tiq1c(1S)]T[Trp(7-aza)]EY[NMeS]HC[Nva]-NH2 (linker 2-10 via mXylyl(3)) [R3122]
Avg. IC50, human hemolysis assay (complete human sera): > 50 µM

Ac-[Nva]C[Phg]T[Trp(7-aza)]EY[NMeS]H[hCys][Nva]-NH2 (linker 2-10 via pXylyl) [R3106]
Avg. IC50, human hemolysis assay (complete human sera): > 5 µM

Ac-[Nle]C[Phg]T[Trp(7-aza)]EY[NMeS]HC[Nva]-NH2 (linker 2-10 via mXylyl(4)) [R3112]
Avg. IC50, human hemolysis assay (complete human sera): > 5 µM

Ac-CVERFCVYWEF-NH2 (linker 1-6 via mXylyl(4)) [R3124]
Avg. IC50, human hemolysis assay (complete human sera): > 100 µM

Ac-[Nva]T[Phg]C[Trp(7-aza)]EY[NMeS]AC[Nva]-NH2 (linker 4-10 via mXylyl(4)) [R3111]
Avg. IC50, human hemolysis assay (complete human sera): > 5 µM

Ac-[Nva]C[Phg]T[dW]EY[NMeS]HC[Nva]-NH2 (linker 2-10 via mXylyl″) [R3132]
Avg. IC50, human hemolysis assay (complete human sera): > 100 µM

Ac-[Nva]CYNN[Tle]E[Trp(7-aza)]ECP[Phg][Tle]-NH2 (cysteine pairing not given here) [R3126]
Avg. IC50, human hemolysis assay (complete human sera): > 3 µM

B3: R3119 (peptide)
peptide: Ac-YENY[dW]EYP[Phg][Nva]-NH2
SMILES: CCC[C@H](NC(=O)[C@@H](NC(=O)[C@@H]1CCCN1C(=O)[C@H](Cc1ccc(O)cc1)NC(=O)[C@H](CCC(=O)O)NC(=O)[C@@H](Cc1c[nH]c2ccccc12)NC(=O)[C@H](Cc1ccc(O)cc1)NC(=O)[C@H](CC(N)=O)NC(=O)[C@H](CCC(=O)O)NC(=O)[C@H](Cc1ccc(O)cc1)NC(C)=O)c1ccccc1)C(N)=O
Avg. IC50, human hemolysis assay (complete human sera): > 100 µM

Ac-[Nva]C[Phg]T[Trp(1-Me)]EY[NMeS]AC[Nva]-NH2 (linker 2-10 via mXylyl(4)) [R3109]
Avg. IC50, human hemolysis assay (complete human sera): > 100 µM

Ac-[Nva]C[Phg]T[Trp(7-aza)]EY[NMeS]HC-NH2 (linker 2-10 via mXylyl) [R3013]
Avg. IC50, human hemolysis assay (complete human sera): 0.344 µM

B4: R3137 (peptide)
peptide: Heptanoyl-C[dPhg]T[Trp(7-aza)]EY[NMeS]AC[Nva]-NH2
modifications: linker 1-9 via mXylyl″; not fully specified; printed as [mXylyl(1,9)]heptanoyl-C-(D-Phg)-T-azaTrp-E-Y-(N-Me)S-A-C-Nvl-NH2
Avg. IC50, human hemolysis assay (complete human sera): > 100 µM

B5: R3110 (peptide)
peptide: Ac-YEN[Tle]Y[Trp(1-Me)]EYP[Phg][Nva]-NH2
SMILES: CCC[C@H](NC(=O)[C@@H](NC(=O)[C@@H]1CCCN1C(=O)[C@H](Cc1ccc(O)cc1)NC(=O)[C@H](CCC(=O)O)NC(=O)[C@H](Cc1cn(C)c2ccccc12)NC(=O)[C@H](Cc1ccc(O)cc1)NC(=O)[C@@H](NC(=O)[C@H](CC(N)=O)NC(=O)[C@H](CCC(=O)O)NC(=O)[C@H](Cc1ccc(O)cc1)NC(C)=O)C(C)(C)C)c1ccccc1)C(N)=O
Avg. IC50, human hemolysis assay (complete human sera): 2.94 µM

Ac-CVERFCD[Tle]YWEF-NH2 (linker 1-6 via mXylyl″) [R3138]
Avg. IC50, human hemolysis assay (complete human sera): 0.0872 µM

Ac-[Nva]CYE[Sar][Tle]Y[Trp(7-aza)]E[Nva][Nva]PC-NH2 (linker 2-13 via mXylyl) [R3010]
Avg. IC50, human hemolysis assay (complete human sera): > 100 µM
